# Data reported in PMC12431651.
# B1: MED25 ACID (aa 389–543) (domain or fragment)
# chain: LGGQQSVSNKLLAWSGVLEWQEKPKPASVDANTKLTRSLPCQVYVNHGENLKTEQWPQKLIMQLIPQQLLTTLGPLFRNSRMVQFHFTNKDLESLKGLYRIMGNGFAGCVHFPHTAPCEVRVLMLLYSSKKKIFMGLIPYDQSGFVNGIRQVITN
# Key:
# Test in all cases: ITC; MED25 ACID (200 or 250 µM, syringe) titrated into NS1 (20 µM, cell); 20 mM Tris pH 8.0, 200 mM NaCl, 1 mM TCEP, 25°C; one set of sites model
# [1] = target: NS1 L133A (human respiratory syncytial virus subgroup A, Long strain)
# [2] = target: NS1 E110A (human respiratory syncytial virus subgroup A, Long strain)
# [3] = target: NS1 I54A (human respiratory syncytial virus subgroup A, Long strain)
# [4] = target: NS1 K112A (human respiratory syncytial virus subgroup A, Long strain)
# [5] = target: NS1 M122A (human respiratory syncytial virus subgroup A, Long strain)
# [6] = target: RSV NS1, full-length wild type (aa 1–139) (human respiratory syncytial virus subgroup A, Long strain)
# [7] = target: NS1 Y125A (human respiratory syncytial virus subgroup A, Long strain)
# [8] = target: NS1 F56A (human respiratory syncytial virus subgroup A, Long strain)
binder,measurement,setting,value
B1,Kd,[1],2230 nM
same,dH,[1],-7.6 kcal/mol
same,stoichiometry N,[1],0.44
same,Kd,[2],1540 nM
same,dH,[2],-7.7 kcal/mol
same,stoichiometry N,[2],0.86
same,Kd,[3],45 nM
same,dH,[3],-10.7 kcal/mol
same,stoichiometry N,[3],0.79
same,Kd,[4],79 nM
same,dH,[4],-10.7 kcal/mol
same,stoichiometry N,[4],0.66
same,Kd,[5],606 nM
same,dH,[5],-10.4 kcal/mol
same,stoichiometry N,[5],0.71
same,Kd,[6],44 nM
same,dH,[6],-10.1 kcal/mol
same,stoichiometry N,[6],0.73
same,Kd,[7],80 nM
same,dH,[7],-11.9 kcal/mol
same,stoichiometry N,[7],0.53
same,Kd,[8],198 nM
same,dH,[8],-8.3 kcal/mol
same,stoichiometry N,[8],0.8
